Test results: article PMC6237815, “Structural insights into DNA degradation by human mitochondrial nuclease MGME1”
Residue numbers refer to the chain shown, from its start.

T1: HsMGME1 WT (Homo sapiens, UniProt Q9BQP7 21-344)
T1 sequence: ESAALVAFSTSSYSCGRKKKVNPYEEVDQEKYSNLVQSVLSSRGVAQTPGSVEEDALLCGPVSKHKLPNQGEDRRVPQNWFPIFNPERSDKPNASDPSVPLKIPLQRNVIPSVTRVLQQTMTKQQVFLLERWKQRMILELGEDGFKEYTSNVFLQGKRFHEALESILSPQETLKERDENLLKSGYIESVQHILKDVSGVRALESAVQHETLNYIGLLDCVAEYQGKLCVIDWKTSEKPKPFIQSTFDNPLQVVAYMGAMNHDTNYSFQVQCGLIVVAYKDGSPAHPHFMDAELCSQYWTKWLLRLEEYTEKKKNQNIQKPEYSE

T2: HsMGME1 H180Q (Homo sapiens, UniProt Q9BQP7 21-344, H180Q)
T2 sequence: T1 sequence with H160Q

B1: DNA3 (mixed)
DNA 1: GGATCCTTCTTCTTCTTC
DNA 2: GGATCCTTCTTCTTCTTC

What was measured:
HsMGME1 WT [1] = molecular target: T1, HsMGME1 WT; experiment: crystal structure (Se-SAD and native); three of four molecules contact only the 3' overhang, one contacts duplex and overhang; No solution binding assay; crystals at 18 C, protein 10 mg/ml in 20 mM Tris pH 8.0, 200 mM NaCl, 1 mM DTT, protein:DNA 1:1.2; DNA2: phosphate-citrate pH 4.2, 20% PEG300; H180Q-DNA2-Ca2+: 0.1 M CHES pH 9.5, 20% PEG 8000; DNA3: 0.1 M HEPES pH 7.5, 0.8 M NaH2PO4, 0.8 M K2HPO4; conditions: protein: recombinant; tags: none expected (His-SUMO removed by Ulp1); self-complementary 6-bp duplex GGATCC, 3' overhang 12 nt on both strands; 2 copies of the strand
HsMGME1 H180Q = molecular target: T2, HsMGME1 H180Q; experiment: crystal structure; one Ca2+ at A-site; acetate; 30 mM CaCl2 in sample; No solution binding assay; crystals at 18 C, protein 10 mg/ml in 20 mM Tris pH 8.0, 200 mM NaCl, 1 mM DTT, protein:DNA 1:1.2; DNA2: phosphate-citrate pH 4.2, 20% PEG300; H180Q-DNA2-Ca2+: 0.1 M CHES pH 9.5, 20% PEG 8000; DNA3: 0.1 M HEPES pH 7.5, 0.8 M NaH2PO4, 0.8 M K2HPO4; conditions: protein: recombinant; tags: none expected (His-SUMO removed by Ulp1); single strand
HsMGME1 WT [2] = molecular target: T1, HsMGME1 WT; experiment: crystal structure (1.75 A); CaCl2 in the sample (10 mM), but no Ca2+ bound at the active site; No solution binding assay; crystals at 18 C, protein 10 mg/ml in 20 mM Tris pH 8.0, 200 mM NaCl, 1 mM DTT, protein:DNA 1:1.2; DNA2: phosphate-citrate pH 4.2, 20% PEG300; H180Q-DNA2-Ca2+: 0.1 M CHES pH 9.5, 20% PEG 8000; DNA3: 0.1 M HEPES pH 7.5, 0.8 M NaH2PO4, 0.8 M K2HPO4; conditions: protein: recombinant; tags: none expected (His-SUMO removed by Ulp1); single strand

Row | Binder | binding result (HsMGME1 WT [1]) | binding result (HsMGME1 H180Q) | binding result (HsMGME1 WT [2])
1 | B1 | binds | – | –
2 | AACAACAACAAC (ssDNA) [ssDNA2] | – | binds | binds
